From PMC4068993, “Chlamydia pneumoniae CopD Translocator Protein Plays a Critical Role in Type III Secretion (T3S) and Infection” (PLoS ONE, 2014)
Where “and” joins values, the source holds several entries; their conditions need not be identical. Identical values can stand only once.

B1: Full length His-CopD (natural protein)
chain: MTSGVSGSSSQDPTLAAQLAQSSQKAGNAQSGHDTKNVTKQGAQAEVAAGGFEDLIQDASAQSTGKKEATSSTTKSSKGEKSEKSGKSKSSTSVASASETATAQAVQGPKGLRQNNYDSPSLPTPEAQTINGIVLKKGMGTLALLGLVMTLMANAAGESWKASFQSQNQAIRSQVESAPAIGEAIKRQANHQASATEAQAKQSLISGIVNIVGFTVSVGAGIFSAAKGATSALKSASFAKETGASAAGGAASKALTSASSSVQQTMASTAKAATTAASSAGSAATKAAANLTDDMAAAASKMASDGASKASGGLFGEVLNKPNWSEKVSRGMNVVKTQGARVASFAGNALSSSMQMSQLMHGLTAAVEGLSAGQTGIEVAHHQRLAGQAEAQAEVLKQMSSVYGQQAGQAGQLQEQAMQSFNTALQTLQNIADSQTQTTSAIFN
notes: CopD (Cpn0808), Chlamydia pneumoniae CWL029, 444 amino acids (44.5 kDa); Eluted from SEC as decamer, tetramer and monomer; also called Cpn0808; source: E. coli Rosetta pLysS, co-expressed with LcrH_1-S-tag (pET-DUET), purified (Ni-NTA); not shown: 6×His, N-terminal, kept

What was measured:
[1] = molecular target: Full length His-CopD (Chlamydia pneumoniae CWL029) (UniProt Q9Z798); assay: SEC; co-expressed and Ni-NTA purified His-CopD and LcrH_1-S-tag (300 µL, 4.5 mg/mL), Superdex S200 10/300 GL, PBS + 0.03% LDAO, 0.5 mL/min; fractions blotted with anti-His and anti-S-tag; sizes from column standards
[2] = molecular target: the molecule itself; assay: as above

| Molecule | stoichiometry N (LcrH 1 per CopD) [1] | stoichiometry N [2] |
| --- | --- | --- |
| LcrH_1-S-tag (natural protein) | 1 | – |
| B1 | – | 10 and 4 |
